Measurements taken from patent US20070128678A1.

B1: PstP1-240 (His-tagged catalytic domain of Mycobacterium tuberculosis Ser/Thr protein phosphatase PstP, aa 1-240) (protein)
chain: MARVTLVLRYAARSDRGLVRANNEDSVYAGARLLALADGMGGHAAGEVASQLVIAALAHLDDDEPGGDLLAKLDAAVRAGNSAIAAQVEMEPDLEGMGTTLTAILFAGNRLGLVHIGDSRGYLLRDGELTQITKDDTFVQTLVDEGRITPEEAHSHPQRSLIMRALTGHEVEPTLTMREARAGDRYLLCSDGLSDPVSDETILEALQIPEVAESAHRLIELALRGGGPDNVTVVVADVVD

Legend:
[1] = molecular target: PknB1-279 (His-tagged catalytic kinase domain of Mycobacterium tuberculosis Ser/Thr protein kinase PknB, aa 1-279) (Mycobacterium tuberculosis) (UniProt P9WI81); test: cell-based or functional assay
[2] = molecular target: T1, PknB1-279 (His-tagged catalytic kinase domain of Mycobacterium tuberculosis Ser/Thr protein kinase PknB, aa 1-279), P9WI81
T1 chain: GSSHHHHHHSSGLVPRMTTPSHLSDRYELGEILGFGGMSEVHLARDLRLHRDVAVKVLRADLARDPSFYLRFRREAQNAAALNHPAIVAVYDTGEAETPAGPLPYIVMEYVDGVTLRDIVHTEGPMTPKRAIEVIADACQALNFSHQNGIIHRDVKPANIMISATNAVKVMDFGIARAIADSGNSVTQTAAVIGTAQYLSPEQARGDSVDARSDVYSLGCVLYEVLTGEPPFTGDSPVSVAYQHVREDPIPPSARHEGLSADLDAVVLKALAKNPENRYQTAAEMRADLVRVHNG

Molecule | MALDI-TOF mass of PknB1-279 after phosphatase treatment (phosphate groups removed) (phosphate groups) [1] | dephosphorylation of autophosphorylated [33P]-PknB1-279 by PstP (SDS-PAGE, autoradiography, band shift) [2] | kinase activity of PknB on MBP with thio-γATP after preincubation with PstP [2]
PstP1-240 (His-tagged catalytic domain of Mycobacterium tuberculosis Ser/Thr protein phosphatase PstP, aa 1-240) (from UniProt P9WHW4 1-240) (enzyme) | 3 | – | –
B1 | – | PstP is capable of dephosphorylating PknB | prior dephosphorylation of PknB by PstP inhibits kinase activity on MBP
